# Source: paper doi:10.1101/2025.05.28.656718
# Biological target: His-tagged PKM1 (human) (UniProt P14618)
# Assay: AlphaScreen or HTRF
# Pep-SP1, sequence (Q6SZW1 whole entry, looked up): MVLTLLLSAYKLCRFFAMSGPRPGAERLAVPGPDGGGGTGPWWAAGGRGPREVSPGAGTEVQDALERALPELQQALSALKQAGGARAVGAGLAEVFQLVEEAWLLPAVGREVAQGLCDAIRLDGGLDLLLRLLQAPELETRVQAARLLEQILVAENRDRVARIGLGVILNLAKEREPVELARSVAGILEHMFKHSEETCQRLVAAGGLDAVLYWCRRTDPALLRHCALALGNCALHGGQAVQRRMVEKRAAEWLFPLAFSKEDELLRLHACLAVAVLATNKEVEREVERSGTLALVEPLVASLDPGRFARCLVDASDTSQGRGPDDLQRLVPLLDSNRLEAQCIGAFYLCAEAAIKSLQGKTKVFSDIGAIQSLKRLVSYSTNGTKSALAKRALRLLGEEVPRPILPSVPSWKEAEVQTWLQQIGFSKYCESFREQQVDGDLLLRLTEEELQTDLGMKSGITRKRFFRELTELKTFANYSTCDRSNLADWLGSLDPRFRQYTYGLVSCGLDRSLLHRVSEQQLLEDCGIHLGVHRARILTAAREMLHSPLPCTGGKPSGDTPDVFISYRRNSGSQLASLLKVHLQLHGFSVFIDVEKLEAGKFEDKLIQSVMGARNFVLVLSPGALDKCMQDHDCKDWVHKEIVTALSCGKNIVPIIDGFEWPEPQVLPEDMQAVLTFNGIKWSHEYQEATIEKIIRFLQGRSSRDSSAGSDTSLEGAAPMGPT
substance,measurement,value
Pep-SP1 (from UniProt Q6SZW1 645-655) (peptide),IC50,1.07 µM
